Measurements from patent US20120148607A1 (ARGEN X N V, published 2012).
Positions count from the first letter of the chain named.

What was measured:
[1] = biological target: T1, recombinant dimeric c-Met (R&D systems, 358-MT/CF) (human, UniProt P08581 25-932); assay: competition ELISA: recombinant dimeric c-Met (100 ng/ml) captured by coated mouse anti-His antibody; antibody dilutions 30 min, then 25 ng/ml N-terminally biotinylated HGF (the competitor); strep-HRP, TMB, 620 nm; percent competition against the controls
T1 construct: Bought product; also called Fc-Met; recombinant c-Met
Method: (§1) Competition with N-terminally biotinylated HGF for binding to immobilized c-Met was performed using an ELISA-based competition assay. Five μg/ml mouse anti-His antibodies (Serotech) was immobilized on a maxisorb plate and, after blocking with 1% casein in PBS for 2 h, 100 ng/ml recombinant dimeric c-Met was added and incubated for 1 h at room temperature. After washing, dilutions of the antibodies were added and allowed to bind to the captured c-Met for 30 minutes, before 25 ng/ml N-terminally biotinylated HGF (R&D systems, 294-HGN/CF) was added. Biotinylated HGF was incubated at room temperature for 1 h before washing. Horseradish-conjugated streptavidin (strep-HRP) was added and incubated for an additional hour. TMB was added and the plate read at 620 nm. An isotype control (hIgG1λ) was included as a control as well as murine 5D5 antibody. Competition was expressed as percentage competition as compared to the controls (strep-HRP only or hIgG1λ) and plotted against the concentration of antibodies. An IC₅₀ was calculated using GraphPad Prism (Table 10). Antibodies 13E6 and 20A11 only displaced HGF partially (about 50%), which may be related to the epitope these two mAbs recognize on the c-Met.

[2] = biological target: T1, recombinant dimeric c-Met (R&D systems, …); assay: SPR, Fab-containing periplasmic extract over immobilised c-Met, dissociation 2 min
Method: HGF-competing clones were sequenced in the VH and the VL regions and divided into VH families based on the sequence of the CDR3 in the VH. These VH families were further tested with Surface Plasmon Resonance (SPR) for dissociation (koff) and recognition of SEMA-PSI or the extracellular domain of c-Met (Decoy). Between 1000-2000 RU of dimeric c-Met, SEMA-PSI or Decoy c-Met was immobilised on a VIA chip with amine coupling in sodium acetate buffer (pH 4.5). The Fab-containing peris were added with a flow rate of 30 μl/min and Fabs were considered to be binding if an increase of the RU was observed. The koff was measured for 2 minutes for each sample.

[3] = biological target: T2, Decoy c-Met (extracellular domain of human c-Met) (human, UniProt P08581 25-932); assay: binding ELISA, human c-Met (Decoy)
T2 construct: extracellular domain; also called Decoy Met; monomeric Decoy Met

[4] = biological target: T3, Rhesus (Maccaca mulatta, US20090191580-5) c-Met ECD (Rhesus (Maccaca mulatta)); assay: binding ELISA, Rhesus c-Met ECD immobilised (1 µg/ml)
T3 construct: extracellular domain; also called Rhesus c-Met ECD; Rhesus ECD
Method: Cross reactivity to Rhesus (Maccaca mulatta, US20090191580_{—}5) c-Met ECD and mouse c-Met (R&D systems cat no: 527-ME) was performed in a binding ELISA. Rhesus ECD was immobilized in PBS (1 μg/ml) on a 96-well maxisorb plate and incubated at 4° C. over night. After blocking with 1% casein in PBS, the antibodies in dilutions starting with 10 μg/ml were added and allowed to bind for 1 h at room temperature. The plate was washed and a goat anti-human Fcγ antibody (Jackson) was added and incubated for 1 h at room temperature. After washing, TMB was added and the plate read at 620 nm

[5] = biological target: T1, recombinant dimeric c-Met (R&D systems, …); assay: SPR, periplasmic Fab over Fc-Met (around 3000 RU) on CM5 chip
Method: The clones were then tested for their dissociation constants by Surface Plasmon Resonance. Around 3000 RU of Fc-Met was immobilized directly onto a CM5 chip to obtain a clear binding profile from the periplasmic extracts. Clones with an improved off-rate were sent for sequencing.

[6] = biological target: T1, recombinant dimeric c-Met (R&D systems, …); assay: competition ELISA, mAb against 25 ng/ml biotinylated HGF on captured dimeric c-Met
Method: as §1

c-Met SEMA ectodomain = biological target: T4, c-Met SEMA ectodomain (human, UniProt P08581 27-515); assay: ELISA on immobilised c-Met ectodomains
T4 construct: domain: SEMA; also called SEMA domain

[7] = biological target: T5, c-Met SEMA-PSI ectodomain (human, UniProt P08581 25-562, limits assumed); assay: ELISA on immobilised c-Met ectodomains
T5 construct: domain: SEMA-PSI

[8] = biological target: T6, c-Met SEMA-PSI-IPT1-2 ectodomain (human, UniProt P08581 25-741, limits assumed); assay: ELISA on immobilised c-Met ectodomains
T6 construct: domain: SEMA-PSI-IPT1-2; also called IPT1-2 (as recognised domain)

c-Met IPT3-4 ectodomain = biological target: T7, c-Met IPT3-4 ectodomain (human, UniProt P08581 742-932, limits assumed); assay: ELISA on immobilised c-Met ectodomains
T7 construct: domain: IPT3-4

[9] = biological target: T2, Decoy c-Met (extracellular domain of …); assay: SPR: mAb (0.5 µg/ml) kept 1 h at the given temperature, run over a CM-5 chip coupled with 15,000-17,000 RU Decoy c-Met; slope between 100 and 130 s at 30 µl/min in percent of the sample kept at 4 °C

T2 sequence (P08581 25-932): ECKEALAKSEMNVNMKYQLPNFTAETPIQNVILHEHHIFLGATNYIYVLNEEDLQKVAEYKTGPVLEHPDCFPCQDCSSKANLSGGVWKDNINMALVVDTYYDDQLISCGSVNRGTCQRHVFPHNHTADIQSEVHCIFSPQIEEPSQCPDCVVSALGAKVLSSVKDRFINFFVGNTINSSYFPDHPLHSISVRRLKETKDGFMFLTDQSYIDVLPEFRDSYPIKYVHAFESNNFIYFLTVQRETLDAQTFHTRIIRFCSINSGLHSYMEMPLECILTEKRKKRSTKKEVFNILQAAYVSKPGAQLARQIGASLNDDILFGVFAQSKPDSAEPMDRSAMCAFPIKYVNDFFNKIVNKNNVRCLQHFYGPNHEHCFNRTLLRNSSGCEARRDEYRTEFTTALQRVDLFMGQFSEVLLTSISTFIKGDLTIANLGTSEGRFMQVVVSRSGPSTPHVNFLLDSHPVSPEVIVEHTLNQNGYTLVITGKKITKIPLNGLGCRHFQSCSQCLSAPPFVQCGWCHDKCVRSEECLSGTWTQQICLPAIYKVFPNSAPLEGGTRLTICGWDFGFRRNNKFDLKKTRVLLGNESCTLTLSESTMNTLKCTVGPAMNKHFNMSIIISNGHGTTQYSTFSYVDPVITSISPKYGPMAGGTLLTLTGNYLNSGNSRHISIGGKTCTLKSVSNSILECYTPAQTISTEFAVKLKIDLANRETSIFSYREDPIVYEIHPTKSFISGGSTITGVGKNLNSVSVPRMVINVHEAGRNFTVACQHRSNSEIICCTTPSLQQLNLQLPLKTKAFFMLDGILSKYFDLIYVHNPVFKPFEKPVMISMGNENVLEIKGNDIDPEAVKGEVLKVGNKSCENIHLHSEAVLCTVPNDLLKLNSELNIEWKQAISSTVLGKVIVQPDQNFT
T1 sequence (P08581 25-932 limits assumed): as the sequence (P08581 25-932) above
T4 sequence (P08581 27-515): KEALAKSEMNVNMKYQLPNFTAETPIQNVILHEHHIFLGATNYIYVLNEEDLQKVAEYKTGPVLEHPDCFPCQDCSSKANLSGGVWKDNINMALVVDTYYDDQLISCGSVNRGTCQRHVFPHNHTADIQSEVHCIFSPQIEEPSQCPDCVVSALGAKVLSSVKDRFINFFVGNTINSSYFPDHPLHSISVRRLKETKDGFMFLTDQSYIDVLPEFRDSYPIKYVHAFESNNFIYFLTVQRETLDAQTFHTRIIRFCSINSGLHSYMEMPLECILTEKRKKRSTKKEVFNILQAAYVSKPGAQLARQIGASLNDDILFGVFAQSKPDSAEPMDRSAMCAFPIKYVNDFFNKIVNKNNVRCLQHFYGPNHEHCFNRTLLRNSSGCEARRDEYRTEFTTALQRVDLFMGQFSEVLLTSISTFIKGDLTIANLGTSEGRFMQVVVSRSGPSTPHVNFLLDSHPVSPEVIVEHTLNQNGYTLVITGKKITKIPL
T7 sequence (P08581 742-932 limits assumed): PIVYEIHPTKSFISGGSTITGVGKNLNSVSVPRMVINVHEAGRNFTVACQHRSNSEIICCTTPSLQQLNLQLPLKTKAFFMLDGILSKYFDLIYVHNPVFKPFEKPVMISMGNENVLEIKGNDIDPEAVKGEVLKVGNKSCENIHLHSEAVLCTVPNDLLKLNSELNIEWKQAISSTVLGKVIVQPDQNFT
T5 sequence (P08581 25-562 limits assumed): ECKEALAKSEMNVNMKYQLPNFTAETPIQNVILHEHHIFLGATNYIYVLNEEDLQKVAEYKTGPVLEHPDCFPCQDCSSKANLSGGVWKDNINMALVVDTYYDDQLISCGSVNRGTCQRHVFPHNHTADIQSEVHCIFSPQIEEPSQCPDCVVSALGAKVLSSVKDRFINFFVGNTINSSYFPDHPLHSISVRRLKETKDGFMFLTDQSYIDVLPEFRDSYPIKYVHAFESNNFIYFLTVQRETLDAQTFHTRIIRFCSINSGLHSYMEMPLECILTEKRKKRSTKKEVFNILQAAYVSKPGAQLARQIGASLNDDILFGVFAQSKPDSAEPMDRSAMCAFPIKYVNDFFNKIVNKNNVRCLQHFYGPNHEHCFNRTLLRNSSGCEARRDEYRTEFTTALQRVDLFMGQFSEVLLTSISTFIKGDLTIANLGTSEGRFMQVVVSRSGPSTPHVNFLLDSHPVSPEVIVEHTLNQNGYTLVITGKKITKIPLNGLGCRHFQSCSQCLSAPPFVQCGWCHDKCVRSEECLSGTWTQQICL
T6 sequence (P08581 25-741 limits assumed): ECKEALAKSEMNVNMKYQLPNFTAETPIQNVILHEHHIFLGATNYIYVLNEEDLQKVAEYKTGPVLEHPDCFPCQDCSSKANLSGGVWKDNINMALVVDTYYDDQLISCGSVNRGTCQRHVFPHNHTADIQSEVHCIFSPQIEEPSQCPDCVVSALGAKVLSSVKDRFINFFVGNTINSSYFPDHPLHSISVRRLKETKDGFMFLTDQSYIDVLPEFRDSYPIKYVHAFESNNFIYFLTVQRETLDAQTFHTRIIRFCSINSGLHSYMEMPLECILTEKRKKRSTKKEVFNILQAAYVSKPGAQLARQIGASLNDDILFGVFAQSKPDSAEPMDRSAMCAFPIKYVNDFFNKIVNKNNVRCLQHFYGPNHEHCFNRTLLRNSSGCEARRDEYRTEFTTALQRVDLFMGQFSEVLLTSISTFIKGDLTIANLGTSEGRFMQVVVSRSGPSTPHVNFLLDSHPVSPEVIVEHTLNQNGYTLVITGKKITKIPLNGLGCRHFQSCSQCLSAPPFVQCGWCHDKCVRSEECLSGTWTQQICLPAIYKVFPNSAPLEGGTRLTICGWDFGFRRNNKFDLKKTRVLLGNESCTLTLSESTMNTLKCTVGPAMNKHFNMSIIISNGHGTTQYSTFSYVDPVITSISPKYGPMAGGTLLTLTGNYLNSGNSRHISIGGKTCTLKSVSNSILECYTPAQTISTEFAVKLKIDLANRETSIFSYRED

B1: murine 5D5 antibody (antibody, V domains shown)
VH: QVQLQQSGPELVRPGASVKMSCRASGYTFTSYWLHWVKQRPGQGLEWIGMIDPSNSDTRFNPNFKDKATLNVDRSSNTAYMLLSSLTSADSAVYYCATYGSYVSPLDYWGQGTSVTVSS
VL: DIMMSQSPSSLTVSVGEKVTVSCKSSQSLLYTSSQKNYLAWYQQKPGQSPKLLIYWASTRESGVPDRFTGSGSGTDFTLTITSVKADDLAVYYCQQYYAYPWTFGGGTKLEIK
With B1 the “IC50 (read off the curve)” value [1] was ~0.8 nM.

B2: 34H7 mAb (antibody, V domains shown)
VH: ELQLVESGGALVQPGGSLRLSCVESGFTFSSYAMSWVRQAPGKGLEWVSGIYKGGGPKYANSVKGRFTISRDNAKNTLYLQMNSLKPEDTAVYYCAKSGYGSSLGDFGSWGQGTQVTVSS
VL: QAGLTQLSSMSGSPGQTVTITCTGSSSNIGGGYYLSWYQHLPGTAPKLLIYSNINRASGVPDRFSGSTSGISASLTITGLQAEDEADYYCSSWDDSVSGPVFGGGTSLTVL
B2 was tested, and the “IC50 (read off the curve)” value [1] was ~0.2 nM.

B3: 34H7 Fab (Fab, V domains shown)
VH: B2 VH
VL: B2 VL
notes: Fab from the phage display library, tested as periplasmic extract
Work on B3 yielded a koff [2] of 0.0016 s⁻¹.

B4: 38H10 mAb (antibody, V domains shown)
VH: EVQLVQPGVELRNPGASVKVSCKASGYIFTMNSIDWVRQAPGQGLEWMGRIDPEDGGTKYAQKFQGRVTFTADTSTSTAYVELNSLRSEDTAVYYCARVDDYYLGYDYWGQGTQVTVSS
VL: EIVMTQSPSSVTASAGEKVTINCKSSQSVLWRSNQKNYLAWYQQRLGQSPRLLISWASIRESGVPDRFSGSGSTTDFTLTISSFQPEDAAVYYCQQGYSFPYTFGSGTRLEIK
With B4 the EC50 [3] was 0.19 nM, the EC50 [4] was 0.17 nM and the “IC50 (read off the curve)” value [1] was ~0.03 nM.

B5: 38H10 Fab (Fab, V domains shown)
VH: B4 VH
VL: B4 VL
notes: as for B3
B5 showed a koff [5] of 0.0005 s⁻¹ and a koff [2] of 0.0012 s⁻¹.

B6: 12G4 mAb (antibody, V domains shown)
VH: QLQLVESGGGMAQPGGSLKLSCAASGFTFDDYAMTWVRQAPGKGLEWLSTISWNDINTYYAESMKDRFTISRDNAKNTLYLQMNSLESEDTAVYYCAKRRDNYYGTSGEYDYWGQGTQVTVSS
VL: QSALTQPPSVSGTLGKTVTISCAGTSSDIGNYNYVSWYQQLPGTAPKLLIYEVNKRPSGIPDRFSGSKSGNTASLSISGLQSEDEADYYCASYRSSNNVVFGGGTKLTVL
B6 was tested, and the EC50 [3] was 0.42 nM, the EC50 [4] was 0.34 nM and the IC50 [6] was 0.26 nM.

B7: 20A11 mAb (antibody, V domains shown)
VH: QVQLVESGGGLVQPGGSLRLSCAASGFTFDDYAMSWVRQAPGKGLEWVSAISWNGSSTYYAESMKGRFTISRDNAKNTLYLQMNSLKSEDTAVYYCAKDLIGSHDYWGQGTQVTVSS
VL: QAVLTQPPSVSGTLGKTLTISCAGTSSDVGYGNYVSWYQQLPGTAPKLLIYAVSTRASGIPDRFSGSKSGNTASLTISGLQSEDEADYYCASYRSSNNYAFGAGTKLTVL
B7: no binding (tested: 1 µg/ml) (c-Met SEMA ectodomain); no binding (tested: 1 µg/ml) [7]; no binding (tested: 1 µg/ml) [8]. For the same binder, the binding result (c-Met IPT3-4 ectodomain) was “no binding (tested: 1 µg/ml)”, the EC50 [3] was 4.3 nM and the EC50 [4] was 3.4 nM.

B8: 20A11 Fab (Fab, V domains shown)
VH: B7 VH
VL: B7 VL
notes: as for B3
In the case of B8, the koff [2] is reported as 0.0009 s⁻¹.

B9: 53E3 (antibody, V domains shown)
VH: QVQLQESGPGLVKPSQTLSLTCTVSGGSITTNYYYWSWIRQSPGKGLEWIGVIAYEGSTDYSPSLKSRVTISRDTSKNQFSLQLSSVTAEDTAVYYCARDVRVIATGWATANALDAWGQGTLVTVSS
VL: QSVLTQPPSVSGSPGQTVTISCAGTSSDVGYGNYVSWYQQLPGTAPKLMIFAVSYRASGIPDRFSGSKSGNTASLTISGLQSEDEADYYCASYRSSNNAAVFGGGTKLTVL
notes: also called germlined variant of 36C4
B9: binds [9].

B10: 36C4 Fab (Fab, V domains shown)
VH: B9 VH with Q5V, T23A, I50M, E56D, V69T, T70S, A89P
VL: B9 VL with Q16K, M49L, S74F, K107H
notes: as for B3
B10 was tested, and the koff [2] was 0.00064 s⁻¹.

B11: 55A12-54E (antibody, V domains shown)
VH: B9 VH with Q5V, T30S, Q83K
VL: B9 VL with V3A, T17S, L41P, M49L, I60V, S82A
notes: as for B9
B11: binds [9].

B12: 53A11 (antibody, V domains shown)
VH: B9 VH with E56D, G57A
VL: B9 VL with L41P, S74F
notes: as for B9
B12: binds [9].

B13: 40B8 Fab (Fab, V domains shown)
VH: EVQLVQPGAELRNPGASVKVSCKASGYTFTNYVIDWVRQAPGQGLEWMGRIDPENGGTRYAQKFQGRVTFTADTSTSTAYVELSNLRSEDTAVYYCARLEDYELAYDYWGQGTQVTVSS
VL: DIVMTQTPSSVTASAGEKVTINCKSSQSVLLSSNQKNYLAWYQQRLGQSPRLLIYWASTRESGVPDRFSGSGSTTDFTLTISSFQPEDAAVYYCQQGVSFPLTFGQGTKVELK
notes: as for B3
Binder B13 has a koff [2] of 0.0013 s⁻¹.

B14: 20F1 mAb (antibody, V domains shown)
VH: EVQVQESGPGLVKPSQTLSLTCTVSGGSMTGNYYAWSWIRQPPGKGLEWMGVIAYDGSTYYSPSLKSRTSISRDTSKNQFSLQLSSVSPEDTAVYYCARGPGWYSGSRNDYWGQGTQVTVSS
VL: QSALTQPPSVSGSPGKTVTISCTGTNSDVGYGNYVSWYQQLPGMAPKLLIYDVNRRASGIADRFSGSKSGNTASLTISGLQSEDEGDYHCASYRSANNAVFGGGTHLFVL
In the case of B14, the IC50 [6] is reported as 0.36 nM.
